Experimental findings from US20080248994A1 (GOVERNMENT OF THE UNITED STATES OF AMERICA AS REPRESENTED …, published 2008) are described below.

In assay [1] the target is T1, hypophosphorylated pRb (endogenous, differentiated C2C12 myotubes, DM) (mouse, UniProt P13405 2-921, hypophosphorylated (sites not given)).
T1 construct: Endogenous protein in extracts of cells kept in differentiation medium for 36 hr
T1 sequence (looked up): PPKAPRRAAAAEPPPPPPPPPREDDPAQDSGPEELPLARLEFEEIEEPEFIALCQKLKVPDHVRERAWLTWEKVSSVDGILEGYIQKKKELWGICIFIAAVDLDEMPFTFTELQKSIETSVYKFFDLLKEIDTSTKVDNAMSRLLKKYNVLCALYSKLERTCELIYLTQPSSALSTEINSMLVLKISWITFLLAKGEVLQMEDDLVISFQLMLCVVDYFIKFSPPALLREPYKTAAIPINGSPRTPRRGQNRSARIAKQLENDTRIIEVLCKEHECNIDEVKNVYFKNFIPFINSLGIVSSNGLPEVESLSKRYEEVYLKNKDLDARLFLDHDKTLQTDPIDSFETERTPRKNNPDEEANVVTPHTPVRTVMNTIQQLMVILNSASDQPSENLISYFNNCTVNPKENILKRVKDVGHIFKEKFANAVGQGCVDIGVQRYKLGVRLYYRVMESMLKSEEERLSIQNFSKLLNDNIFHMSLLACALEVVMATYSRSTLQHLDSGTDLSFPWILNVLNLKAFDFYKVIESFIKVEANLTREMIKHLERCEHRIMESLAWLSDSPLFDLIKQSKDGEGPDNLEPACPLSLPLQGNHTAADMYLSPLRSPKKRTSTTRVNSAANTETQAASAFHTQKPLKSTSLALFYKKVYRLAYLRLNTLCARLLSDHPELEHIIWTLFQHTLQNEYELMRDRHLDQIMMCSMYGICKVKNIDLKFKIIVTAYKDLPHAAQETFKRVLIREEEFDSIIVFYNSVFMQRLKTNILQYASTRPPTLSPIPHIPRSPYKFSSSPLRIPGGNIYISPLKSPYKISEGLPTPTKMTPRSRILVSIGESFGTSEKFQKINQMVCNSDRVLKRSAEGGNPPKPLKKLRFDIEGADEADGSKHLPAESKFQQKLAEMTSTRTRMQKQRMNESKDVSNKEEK
Kind of assay: co-immunoprecipitation from C2C12 myotube extracts, Western blot.

The target of assay [2] is T2, hyperphosphorylated pRb (endogenous, proliferating C2C12 myoblasts, GM) (mouse, UniProt P13405 2-921, hyperphosphorylated (sites not given)).
T2 construct: Endogenous protein in extracts of cells kept in growth medium
T2 sequence (looked up): T1 sequence (looked up)
Kind of assay: co-immunoprecipitation from C2C12 myoblast extracts, Western blot. (In general: In western blotting, separated proteins are transferred to a membrane and probed.)

In the next assay the target is T3, GST-pRb wt (UniProt P06400 379-928, limits assumed).
T3 construct: Expressed in bacteria; the whole protein is named here; also called GST-Rb (WT); GST-RB (WT); not shown: GST tag
T3 sequence (looked up): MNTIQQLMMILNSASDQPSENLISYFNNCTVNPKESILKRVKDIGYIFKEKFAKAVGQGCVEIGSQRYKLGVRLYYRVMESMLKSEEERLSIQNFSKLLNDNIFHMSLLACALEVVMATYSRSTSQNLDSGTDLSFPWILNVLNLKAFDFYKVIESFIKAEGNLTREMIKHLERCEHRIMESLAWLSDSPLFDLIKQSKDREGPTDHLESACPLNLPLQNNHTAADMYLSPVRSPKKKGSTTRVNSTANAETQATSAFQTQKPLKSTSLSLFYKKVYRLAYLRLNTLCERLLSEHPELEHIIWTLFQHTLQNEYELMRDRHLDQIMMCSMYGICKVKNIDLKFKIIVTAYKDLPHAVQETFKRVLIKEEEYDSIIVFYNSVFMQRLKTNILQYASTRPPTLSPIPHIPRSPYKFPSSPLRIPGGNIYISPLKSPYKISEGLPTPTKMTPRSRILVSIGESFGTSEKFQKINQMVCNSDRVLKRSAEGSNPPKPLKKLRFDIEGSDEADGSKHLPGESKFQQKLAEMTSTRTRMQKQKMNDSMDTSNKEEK
Kind of assay: GST pull-down from extracts of transfected pRb-/- 3T3 cells, Western blot (data not shown). The protocol:
The association with MyoD was monitored at different stages of myogenic conversion (GM and DM for 36 hours) by Western blot using anti-MyoD antibodies. In FIG. 9B, pRb−/−p53±double knock out derived 3T3 cells were transfected with Flag-HDAC1 and myc-MyoD. Nuclear extracts were prepared and subsequently incubated with increasing amounts of either GST-pRbwt or GST-pRbN757F. […] The HDAC1 present in the supernatant of the GST pull-down was immunoprecipitated with anti-Flag conjugated beads, and the associated MyoD was detected by Western blot by using anti-myc antibodies. In FIG. 9C (upper panel), a graph illustrates the ability to activate MCK-luc reporter by MyoD transiently expressed in pRb−/−p53±3T3 fibroblasts, evaluated with or without the co-expression of pRb wt or pRb N757F. In the lower panel of […], levels of endogenous MHC, p21, myogenin, tubulin, and ectopically produced pRb were evaluated by Western blot in pRb−/−p53±3T3 fibroblasts after transient expression of MyoD alone or in conjunction with either pRb wt or pRb N757F. FIG. 9D is a graph illustrating the ability to activate the MCK-luc reporter by MyoD and MEF2C alone, or in combination with E12, in pRb−/−p53±double knock out derived 3T3 cells was evaluated with or without the co-expression of pRb wt or pRb N757F. […] Transcriptional activation was measured by luciferase assay. […]

B1: MyoD (endogenous, in extracts of C2C12 cells; also endogenous MyoD of MD3 and CC42 cells) (other, mouse, UniProt P10085 1-318, looked up)
chain: MELLSPPLRDIDLTGPDGSLCSFETADDFYDDPCFDSPDLRFFEDLDPRLVHMGALLKPEEHAHFPTAVHPGPGAREDEHVRAPSGHHQAGRCLLWACKACKRKTTNADRRKAATMRERRRLSKVNEAFETLKRCTSSNPNQRLPKVEILRNAIRYIEGLQALLRDQDAAPPGAAAFYAPGPLPPGRGSEHYSGDSDASSPRSNCSDGMMDYSGPPSGPRRQNGYDTAYYSEAARESRPGKSAAVSSLDCLSSIVERISTDSPAAPALLLADAPPESPPGPPEGASLSDTEQGTQTPSPDAAPQCPAGSNPNAIYQVL
notes: Transcription factor (bHLH)
As for B1, the binding result in assay [1] and in assay [2] was “no binding” in each case.

B2: myc-MyoD (expressed from a transfected vector in pRb-/- 3T3 cells) (other, UniProt P10085 1-318, looked up)
chain: B1 chain
notes: also called myc-tagged MyoD; not shown: myc tag
For the molecule B2, the binding result in the assay with GST-pRb wt is listed as “no binding”.
